Molecular target: INSM1 ZF4-5 (Homo sapiens, UniProt Q01101 424-497)
Test: ITC

Sequence of INSM1 ZF4-5 (Q01101 424-497): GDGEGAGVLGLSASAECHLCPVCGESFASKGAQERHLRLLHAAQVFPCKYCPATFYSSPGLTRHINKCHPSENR

B1: INSM1 consensus dsDNA (dsDNA)
DNA 1: TGTCAGGGGGCA
DNA 2: TGCCCCCTGACA
With B1 the Kd was 21.8 µM.
